In this series the target is OCT4 wild-type in cells (human) (UniProt Q01860). The series can be described thus: cell_activity. The conditions noted are these: for binding signal: transcription activity relative to OBS1+OBS2.
Sequence of UniProt Q01860 (Q01860 whole entry): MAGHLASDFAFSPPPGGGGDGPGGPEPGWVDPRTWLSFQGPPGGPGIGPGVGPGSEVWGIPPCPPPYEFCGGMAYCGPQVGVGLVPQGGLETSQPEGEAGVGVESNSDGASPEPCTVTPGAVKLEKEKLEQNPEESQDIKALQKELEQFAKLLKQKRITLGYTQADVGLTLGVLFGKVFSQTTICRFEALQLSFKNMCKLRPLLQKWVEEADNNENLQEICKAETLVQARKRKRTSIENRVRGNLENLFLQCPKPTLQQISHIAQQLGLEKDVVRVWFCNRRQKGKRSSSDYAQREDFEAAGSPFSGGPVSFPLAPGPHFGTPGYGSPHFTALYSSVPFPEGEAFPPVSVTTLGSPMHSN

MYC -1/-1899 promoter reporter: the activity (luciferase reporter in HEK293FT vs vector control) was 24.4 fold.

The substance MYC OBS2 single-site reporter gave a binding signal of 40%.

MYC OBS1 single-site reporter had a binding signal of 60%.

For the origin of these results see US20220233554.
